We go through one molecule from doi:10.1101/324400 (bioRxiv, 2018).

The target of test [1] is Eco RNAP β' subunit (in the opsEC) (E. coli, UniProt P0A8T7). Briefly: cryo-EM structure.
For test [2], the target named is Eco RNAP β subunit (in the opsEC) (E. coli, UniProt P0A8V2). Briefly: cryo-EM structure.
Eco RNAP β subunit (in the opsEC), sequence (P0A8V2 whole entry): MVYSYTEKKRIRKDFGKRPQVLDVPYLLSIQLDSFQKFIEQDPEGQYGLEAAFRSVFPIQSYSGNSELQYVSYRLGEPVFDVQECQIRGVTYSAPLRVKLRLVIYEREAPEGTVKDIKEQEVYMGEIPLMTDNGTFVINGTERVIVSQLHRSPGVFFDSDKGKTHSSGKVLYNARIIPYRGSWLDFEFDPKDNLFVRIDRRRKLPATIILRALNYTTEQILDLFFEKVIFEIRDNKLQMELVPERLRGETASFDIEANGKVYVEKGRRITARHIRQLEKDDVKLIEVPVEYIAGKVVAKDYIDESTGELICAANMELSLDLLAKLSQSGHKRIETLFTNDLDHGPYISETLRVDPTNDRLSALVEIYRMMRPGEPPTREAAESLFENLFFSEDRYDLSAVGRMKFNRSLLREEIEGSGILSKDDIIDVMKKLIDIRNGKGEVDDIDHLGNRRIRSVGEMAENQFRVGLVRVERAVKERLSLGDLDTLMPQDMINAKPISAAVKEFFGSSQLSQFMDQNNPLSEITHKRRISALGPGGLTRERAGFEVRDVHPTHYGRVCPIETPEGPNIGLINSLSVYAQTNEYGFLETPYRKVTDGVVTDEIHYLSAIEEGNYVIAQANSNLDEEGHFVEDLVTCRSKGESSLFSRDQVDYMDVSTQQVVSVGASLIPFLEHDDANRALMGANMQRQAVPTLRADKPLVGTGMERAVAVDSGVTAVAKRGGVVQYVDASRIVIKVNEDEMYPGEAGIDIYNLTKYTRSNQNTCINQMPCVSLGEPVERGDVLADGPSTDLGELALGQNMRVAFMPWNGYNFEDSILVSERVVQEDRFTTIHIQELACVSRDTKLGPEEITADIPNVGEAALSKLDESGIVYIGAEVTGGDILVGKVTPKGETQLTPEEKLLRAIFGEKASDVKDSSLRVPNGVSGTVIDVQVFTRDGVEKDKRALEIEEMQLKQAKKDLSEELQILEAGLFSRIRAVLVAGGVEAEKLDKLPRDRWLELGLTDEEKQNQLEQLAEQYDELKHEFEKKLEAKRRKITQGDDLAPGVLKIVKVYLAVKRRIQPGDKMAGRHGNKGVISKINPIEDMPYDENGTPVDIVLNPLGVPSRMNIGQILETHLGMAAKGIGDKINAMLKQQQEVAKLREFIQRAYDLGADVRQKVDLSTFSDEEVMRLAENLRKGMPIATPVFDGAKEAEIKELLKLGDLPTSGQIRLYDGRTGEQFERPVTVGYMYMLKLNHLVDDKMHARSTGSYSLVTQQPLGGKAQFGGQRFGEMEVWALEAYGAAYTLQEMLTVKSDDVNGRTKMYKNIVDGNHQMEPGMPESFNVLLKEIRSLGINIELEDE

Eco RNAP β' subunit (in the opsEC), sequence (P0A8T7 whole entry): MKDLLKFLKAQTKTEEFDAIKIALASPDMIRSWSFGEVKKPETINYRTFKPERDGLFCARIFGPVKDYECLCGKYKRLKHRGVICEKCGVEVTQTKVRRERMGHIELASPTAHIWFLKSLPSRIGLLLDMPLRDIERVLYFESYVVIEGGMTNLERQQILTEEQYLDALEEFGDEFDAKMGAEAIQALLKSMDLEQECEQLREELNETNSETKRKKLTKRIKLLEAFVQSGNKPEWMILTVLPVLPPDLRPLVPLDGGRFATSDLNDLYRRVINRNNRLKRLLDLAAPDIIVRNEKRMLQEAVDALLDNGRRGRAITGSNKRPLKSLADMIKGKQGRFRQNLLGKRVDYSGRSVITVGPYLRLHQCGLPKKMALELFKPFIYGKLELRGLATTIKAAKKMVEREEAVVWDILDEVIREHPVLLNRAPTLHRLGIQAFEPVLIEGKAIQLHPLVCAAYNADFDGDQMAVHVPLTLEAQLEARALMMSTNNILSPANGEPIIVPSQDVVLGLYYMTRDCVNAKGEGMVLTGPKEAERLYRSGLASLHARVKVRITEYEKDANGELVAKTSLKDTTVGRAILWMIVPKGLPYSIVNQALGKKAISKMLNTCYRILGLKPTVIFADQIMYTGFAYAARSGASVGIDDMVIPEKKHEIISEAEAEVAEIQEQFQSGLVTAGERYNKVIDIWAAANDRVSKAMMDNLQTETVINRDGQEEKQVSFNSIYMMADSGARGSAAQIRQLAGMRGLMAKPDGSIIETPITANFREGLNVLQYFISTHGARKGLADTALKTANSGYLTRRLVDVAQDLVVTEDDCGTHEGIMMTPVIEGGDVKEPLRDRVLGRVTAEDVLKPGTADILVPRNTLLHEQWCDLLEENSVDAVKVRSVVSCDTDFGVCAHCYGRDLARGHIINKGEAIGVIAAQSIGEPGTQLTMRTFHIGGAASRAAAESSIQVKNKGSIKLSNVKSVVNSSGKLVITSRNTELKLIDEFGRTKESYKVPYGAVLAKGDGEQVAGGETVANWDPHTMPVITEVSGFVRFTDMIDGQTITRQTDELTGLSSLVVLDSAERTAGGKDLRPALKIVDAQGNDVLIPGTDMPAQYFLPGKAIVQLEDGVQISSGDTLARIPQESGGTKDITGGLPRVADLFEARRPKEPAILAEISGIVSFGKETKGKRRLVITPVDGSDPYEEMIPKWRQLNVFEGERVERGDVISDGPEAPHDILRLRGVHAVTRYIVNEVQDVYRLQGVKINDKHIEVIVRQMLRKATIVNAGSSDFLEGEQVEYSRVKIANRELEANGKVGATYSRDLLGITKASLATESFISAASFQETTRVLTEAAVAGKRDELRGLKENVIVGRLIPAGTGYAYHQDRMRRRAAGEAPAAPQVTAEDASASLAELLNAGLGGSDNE

B1: wild-type Eco RfaH, full length (natural protein)
chain: MQSWYLLYCKRGQLQRAQEHLERQAVNCLAPMITLEKIVRGKRTAVSEPLFPNYLFVEFDPEVIHTTTINATRGVSHFVRFGASPAIVPSAVIHQLSVYKPKDIVDPATPYPGDKVIITEGAFEGFQAIFTEPDGEARSMLLLNLINKEIKHSVKNTEFRKL
For B1, the binding result in test [1] and in test [2] was “binds” in each case.
